Source: patent publication US20250313631A1 (HUMMINGBIRD BIOSCIENCE PTE, published 2025)

Tests used:
[1] = target: T1, recombinant human VISTA (His-tagged) (human, UniProt Q9H7M9 33-194); test: BLI (Octet QK384): His-tagged human VISTA on anti-Penta-HIS tips, V4 1000 to 31.3 nM as analyte, global fit; value of the table column kdis(1/s)
T1 construct: bought soluble protein (Sino Biological); also called hVISTA; human VISTA polypeptide

[2] = target: T1, recombinant human VISTA (His-tagged); test: BLI (Octet QK384): His-tagged human VISTA on anti-Penta-HIS tips, V4 1000 to 31.3 nM as analyte, global fit
[3] = target: T1, recombinant human VISTA (His-tagged); test: ELISA, plate coated with human VISTA
human B7H4 = target: T2, human B7H4 (human, UniProt Q7Z7D3 25-258, limits assumed); test: ELISA, plate coated with the antigen
T2 construct: also called VTCN1
T2 sequence (looked up): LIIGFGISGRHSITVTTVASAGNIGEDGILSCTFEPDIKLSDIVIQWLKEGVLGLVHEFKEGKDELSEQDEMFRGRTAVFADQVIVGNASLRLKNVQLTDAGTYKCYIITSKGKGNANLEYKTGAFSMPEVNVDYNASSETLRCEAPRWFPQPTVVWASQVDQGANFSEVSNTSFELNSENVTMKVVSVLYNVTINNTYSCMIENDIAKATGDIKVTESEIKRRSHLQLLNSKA

human CTLA4 = human CTLA4 (human, UniProt P16410 36-162); test: ELISA, plate coated with the antigen
human CTLA4, sequence (P16410 36-162 limits assumed): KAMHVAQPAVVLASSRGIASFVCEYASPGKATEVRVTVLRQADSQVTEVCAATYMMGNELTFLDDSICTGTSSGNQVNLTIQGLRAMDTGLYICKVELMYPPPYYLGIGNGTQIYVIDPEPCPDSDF

human B7H3 = target: T3, human B7H3 (human, UniProt Q5ZPR3 29-461, limits assumed); test: ELISA, plate coated with the antigen
T3 construct: also called CD276
T3 sequence (looked up): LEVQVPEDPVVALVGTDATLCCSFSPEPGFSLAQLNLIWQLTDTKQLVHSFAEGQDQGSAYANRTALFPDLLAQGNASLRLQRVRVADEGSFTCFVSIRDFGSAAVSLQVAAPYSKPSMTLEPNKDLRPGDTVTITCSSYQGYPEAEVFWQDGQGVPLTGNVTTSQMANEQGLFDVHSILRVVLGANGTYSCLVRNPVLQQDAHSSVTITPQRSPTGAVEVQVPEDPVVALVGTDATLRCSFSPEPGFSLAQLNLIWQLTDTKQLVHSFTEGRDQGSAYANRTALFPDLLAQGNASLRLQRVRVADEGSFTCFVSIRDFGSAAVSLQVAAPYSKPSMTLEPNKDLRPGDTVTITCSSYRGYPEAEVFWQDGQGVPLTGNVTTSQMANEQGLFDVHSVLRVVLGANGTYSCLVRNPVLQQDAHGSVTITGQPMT

human B7H6 = target: T4, human B7H6 (human, UniProt Q68D85 25-262); test: ELISA, plate coated with the antigen
T4 construct: also called NCR3LG1
T4 sequence (looked up): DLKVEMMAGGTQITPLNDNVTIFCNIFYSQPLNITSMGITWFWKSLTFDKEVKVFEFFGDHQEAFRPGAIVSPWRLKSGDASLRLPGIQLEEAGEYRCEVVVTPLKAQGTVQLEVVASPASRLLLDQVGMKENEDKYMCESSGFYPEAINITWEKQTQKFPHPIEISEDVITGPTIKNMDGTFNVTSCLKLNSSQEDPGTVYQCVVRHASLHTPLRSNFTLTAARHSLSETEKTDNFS

human PD-1 = human PD-1 (human, UniProt Q15116 25-167); test: ELISA, plate coated with the antigen
human PD-1, sequence (Q15116 25-167 limits assumed): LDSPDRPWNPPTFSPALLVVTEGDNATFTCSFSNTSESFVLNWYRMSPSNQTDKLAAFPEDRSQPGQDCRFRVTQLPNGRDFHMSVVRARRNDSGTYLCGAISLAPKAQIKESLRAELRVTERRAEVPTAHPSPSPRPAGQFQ

[4] = target: T1, recombinant human VISTA (His-tagged); test: antigen-binding ELISA; HMBD-002 in F4, day 20 at 40°C
[5] = target: T1, recombinant human VISTA (His-tagged); test: SPR (Biacore), VISTA-HIS captured, antibody as analyte, 1:1 model; SPR (Biacore), human VISTA
[6] = target: T1, recombinant human VISTA (His-tagged); test: ELISA, plate coated with human B7H5 (VISTA), antibody titrated
[7] = target: T1, recombinant human VISTA (His-tagged); test: antigen-binding ELISA; HMBD-002 in F7, day 10 at 40°C
[8] = target: T1, recombinant human VISTA (His-tagged); test: antigen-binding ELISA; HMBD-002 in F5, day 30 at 40°C
[9] = target: T5, recombinant rat VISTA (His-tagged) (rat, UniProt A0ABK0L5H3 33-192); test: ELISA, VISTA-HIS protein coated; ELISA, rat VISTA-HIS
T5 sequence: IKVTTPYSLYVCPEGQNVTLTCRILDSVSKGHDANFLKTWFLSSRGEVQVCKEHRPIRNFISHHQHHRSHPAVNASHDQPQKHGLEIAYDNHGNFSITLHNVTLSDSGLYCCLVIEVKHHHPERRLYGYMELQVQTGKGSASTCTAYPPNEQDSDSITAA

[10] = target: T6, recombinant mouse VISTA (His-tagged) (mouse, UniProt Q9D659 33-191); test: SPR (Biacore), VISTA-HIS captured, antibody as analyte, 1:1 model; SPR (Biacore), mouse VISTA
T6 construct: also called murine VISTA; mVISTA
T6 sequence (looked up): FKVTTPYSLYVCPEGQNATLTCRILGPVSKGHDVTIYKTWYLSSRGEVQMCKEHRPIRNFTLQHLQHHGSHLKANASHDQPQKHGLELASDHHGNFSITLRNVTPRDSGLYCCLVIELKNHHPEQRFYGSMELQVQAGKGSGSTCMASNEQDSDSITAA

[11] = target: T1, recombinant human VISTA (His-tagged); test: ELISA on coated human VISTA, antibody diluted in buffer of pH 7.5

B1: anti-VISTA clone 4M2-C12 IgG1 (antibody)
heavy: not shown
light: DIVITQTPAILSTSPGEKVTMTCRASSSVGYIHWYQQKPGSSPKPWIYATSNLASGVPARFSGSGSGTSNSLTITRVEAEDAATYYCQQWSSYPPITFGGGTKLEVKRTVAAPSVFIFPPSDEQLKSGTASVVCLLNNFYPREAKVQWKVDNALQSGNSQESVTEQDSKDSTYSLSSTLTLSKADYEKHKVYACEVTHQGLSSPVTKSFNRGEC
notes: mouse variable regions on human IgG1/kappa constant regions; also called V4; V4pr
Question: B1 was tested. Which koff [1] did it give?
Answer: < 1e-07 s⁻¹

Question: What about the kon [2] of the same binder?
Answer: 45400 M⁻¹ s⁻¹

B2: anti-VISTA clone V4-C24 IgG1 (antibody, V domains shown)
VH: QVQLQESGPGLVKPSDTLSLTCTVSGYSITSDYTWNWIRQTPGKGLEWIGHITYSGSVSYNPSLRSRVTISRDTSKNQFSLKLSSVTAADTATYSCARALYYPWYFDVWGTGTTVTVSS
VL: EIVLTQSPATLSLSPGERATLSCRASSSVGYIHWYQQKPGQAPRPLIYTTSYRATGIPARFSGSGSGTDNTLTISSLEPEDSAVYYCQQWSSYPPITFGGGTKLEVKR
Question: How did the “EC50 (read off the curve)” value [3] turn out when B2 was run?
Answer: ~0.02 nM

B3: anti-VISTA clone V4-C27 IgG1 (antibody, V domains shown)
VH: QVQLQESGPGLVKPSDTLSLTCTVSGYSITSDYTWNWIRQTPGKGLEWIGHITYSGSVSYNPSLRSRVTISRDTSKNQFSLKLSSVTAADTATYSCARALYYPWYFDVWGTGTTVTVSS
VL: EIVLTQSPATLSLSPGERATLSCRASSSVGYIHWYQQKPGQAPRPLIYATYNRATGIPARFSGSGSGTDNTLTISSLEPEDSAVYYCQQWSSYPPITFGGGTKLEVKR
Question: Does B3 bind (human B7H4)?
Answer: no binding (tested: log -7.5 M)

Question: Does B3 bind (human CTLA4)?
Answer: no binding (tested: log -7.5 M)

Question: Does B3 bind (human B7H3)?
Answer: no binding (tested: log -7.5 M)

Question: Does B3 bind (human B7H6)?
Answer: no binding (tested: log -7.5 M)

Question: Does B3 bind (human PD-1)?
Answer: no binding (tested: log -7.5 M)

B4: V4-C26 hIgG4 (antibody)
heavy: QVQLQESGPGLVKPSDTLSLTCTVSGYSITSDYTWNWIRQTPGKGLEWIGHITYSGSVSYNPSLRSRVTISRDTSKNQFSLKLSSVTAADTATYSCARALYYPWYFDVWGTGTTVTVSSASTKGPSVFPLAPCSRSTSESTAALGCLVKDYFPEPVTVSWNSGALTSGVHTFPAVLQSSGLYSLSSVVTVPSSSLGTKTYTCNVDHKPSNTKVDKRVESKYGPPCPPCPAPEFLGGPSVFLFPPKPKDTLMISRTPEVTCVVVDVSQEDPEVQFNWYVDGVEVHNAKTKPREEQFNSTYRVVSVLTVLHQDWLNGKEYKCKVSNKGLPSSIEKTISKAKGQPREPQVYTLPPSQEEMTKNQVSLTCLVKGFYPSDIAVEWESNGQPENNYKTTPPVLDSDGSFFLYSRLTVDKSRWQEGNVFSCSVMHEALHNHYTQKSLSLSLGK
light: EIVLTQSPATLSLSPGERATLSCRASSSVGYIHWYQQKPGQAPRPIIYTTSNRATGIPARFSGSGSGTDNTLTISSLEPEDSAVYYCQQWSSYPPITFGGGTKLEVKRTVAAPSVFIFPPSDEQLKSGTASVVCLLNNFYPREAKVQWKVDNALQSGNSQESVTEQDSKDSTYSLSSTLTLSKADYEKHKVYACEVTHQGLSSPVTKSFNRGEC
notes: human IgG4 (S228P)/kappa format; also called HMBD-002; HMBD-002-V4C26
Question: How did the EC50 [4] turn out when B4 was run?
Answer: 0.0205 nM

Question: And the Kd [5]?
Answer: 0.407 nM

Question: What about the “EC50 (read off the curve)” value [6] of the same binder?
Answer: ~0.01 nM

Question: And the EC50 [7]?
Answer: 0.0339 nM

Question: And the EC50 [8]?
Answer: 0.0223 nM

Question: What about the EC50 [9] of the same binder?
Answer: 0.00669 nM

Question: And the Kd [10]?
Answer: 0.549 nM

Question: What about the EC50 [11] of the same binder?
Answer: 0.0287 nM
